Experimental data reported in patent publication US7060284.

Molecular target: HER-2 protein (human p185 HER-2 receptor) (human) (UniProt P04626)
Test: flow cytometry on SKBR3 cells, control sample

Mean Cell Fluorescence: 0.647
Substance: negative control sera (antibody)
